From patent US20110263454A1, “Methods of Identifying Functional Characteristics of Promoters, Transcription Modifying Proteins and Transcription Modulating Agents” (Salk Institute for Biological Studies, priority 2008, published 2011)

B1: TR2: Testicular Orphan Nuclear Receptor 2 (NR2C1), cDNA driver (protein, UniProt P13056 1-603, looked up)
Nuclear receptor subfamily 2 …: MATIEEIAHQIIEQQMGEIVTEQQTGQKIQIVTALDHNTQGKQFILTNHDGSTPSKVILARQDSTPGKVFLTTPDAAGVNQLFFTTPDLSAQHLQLLTDNSPDQGPNKVFDLCVVCGDKASGRHYGAVTCEGCKGFFKRSIRKNLVYSCRGSKDCIINKHHRNRCQYCRLQRCIAFGMKQDSVQCERKPIEVSREKSSNCAASTEKIYIRKDLRSPLTATPTFVTDSESTRSTGLLDSGMFMNIHPSGVKTESAVLMTSDKAESCQGDLSTLANVVTSLANLGKTKDLSQNSNEMSMIESLSNDDTSLCEFQEMQTNGDVSRAFDTLAKALNPGESTACQSSVAGMEGSVHLITGDSSINYTEKEGPLLSDSHVAFRLTMPSPMPEYLNVHYIGESASRLLFLSMHWALSIPSFQALGQENSISLVKAYWNELFTLGLAQCWQVMNVATILATFVNCLHNSLQQDKMSTERRKLLMEHIFKLQEFCNSMVKLCIDGYEYAYLKAIVLFSPDHPSLENMEQIEKFQEKAYVEFQDYITKTYPDDTYRLSRLLLRLPALRLMNATITEELFFKGLIGNIRIDSVIPHILKMEPADYNSQIIGHSI
B2: TR4: Testicular Orphan Nuclear Receptor 4 (NR2C2), cDNA driver (protein, UniProt P49116 1-596, looked up)
Nuclear receptor subfamily 2 …: MTSPSPRIQIISTDSAVASPQRIQIVTDQQTGQKIQIVTAVDASGSPKQQFILTSPDGAGTGKVILASPETSSAKQLIFTTSDNLVPGRIQIVTDSASVERLLGKTDVQRPQVVEYCVVCGDKASGRHYGAVSCEGCKGFFKRSVRKNLTYSCRSNQDCIINKHHRNRCQFCRLKKCLEMGMKMESVQSERKPFDVQREKPSNCAASTEKIYIRKDLRSPLIATPTFVADKDGARQTGLLDPGMLVNIQQPLIREDGTVLLATDSKAETSQGALGTLANVVTSLANLSESLNNGDTSEIQPEDQSASEITRAFDTLAKALNTTDSSSSPSLADGIDTSGGGSIHVISRDQSTPIIEVEGPLLSDTHVTFKLTMPSPMPEYLNVHYICESASRLLFLSMHWARSIPAFQALGQDCNTSLVRACWNELFTLGLAQCAQVMSLSTILAAIVNHLQNSIQEDKLSGDRIKQVMEHIWKLQEFCNSMAKLDIDGYEYAYLKAIVLFSPDHPGLTSTSQIEKFQEKAQMELQDYVQKTYSEDTYRLARILVRLPALRLMSSNITEELFFTGLIGNVSIDSIIPYILKMETAEYNGQITGASL
B3: ERR2: Estrogen Related Receptor β (NR3B2, ERRb), cDNA driver (protein, UniProt O95718 1-433, looked up)
Steroid hormone receptor ERR2: MSSDDRHLGSSCGSFIKTEPSSPSSGIDALSHHSPSGSSDASGGFGLALGTHANGLDSPPMFAGAGLGGTPCRKSYEDCASGIMEDSAIKCEYMLNAIPKRLCLVCGDIASGYHYGVASCEACKAFFKRTIQGNIEYSCPATNECEITKRRRKSCQACRFMKCLKVGMLKEGVRLDRVRGGRQKYKRRLDSESSPYLSLQISPPAKKPLTKIVSYLLVAEPDKLYAMPPPGMPEGDIKALTTLCDLADRELVVIIGWAKHIPGFSSLSLGDQMSLLQSAWMEILILGIVYRSLPYDDKLVYAEDYIMDEEHSRLAGLLELYRAILQLVRRYKKLKVEKEEFVTLKALALANSDSMYIEDLEAVQKLQDLLHEALQDYELSQRHEEPWRTGKLLLTLPLLRQTAAKAVQHFYSVKLQGKVPMHKLFLEMLEAKV
B4: Erb: Estrogen Receptor β (NR3A2, ERb), cDNA driver (protein, UniProt Q92731 1-530, looked up)
Estrogen receptor beta: MDIKNSPSSLNSPSSYNCSQSILPLEHGSIYIPSSYVDSHHEYPAMTFYSPAVMNYSIPSNVTNLEGGPGRQTTSPNVLWPTPGHLSPLVVHRQLSHLYAEPQKSPWCEARSLEHTLPVNRETLKRKVSGNRCASPVTGPGSKRDAHFCAVCSDYASGYHYGVWSCEGCKAFFKRSIQGHNDYICPATNQCTIDKNRRKSCQACRLRKCYEVGMVKCGSRRERCGYRLVRRQRSADEQLHCAGKAKRSGGHAPRVRELLLDALSPEQLVLTLLEAEPPHVLISRPSAPFTEASMMMSLTKLADKELVHMISWAKKIPGFVELSLFDQVRLLESCWMEVLMMGLMWRSIDHPGKLIFAPDLVLDRDEGKCVEGILEIFDMLLATTSRFRELKLQHKEYLCVKAMILLNSSMYPLVTATQDADSSRKLAHLLNAVTDALVWVIAKSGISSQQQSMRLANLLMLLSHVRHASNKGMEHLLNMKCKNVVPVYDLLLEMLNAHVLRGCKSSITGSECSPAEDSKSKEGSQNPQSQ

System: mADRP promoter
Assay: NHR-promoter luciferase screen, mADRP promoter
Type: cell-based, mouse
Conditions: ADRP promoter; HR/ligand component
Outline: (§1)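 CV-1 cells were co-transfected with 50 ng NHR (homodimer or NHR/RXR heterodimer), 100 ng promoter-luciferase construct and 50 ng LacZ. Luciferase was normalized to LacZ and to a no-NHR/no-ligand control.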

Molecule	Luc. act., normalized to lacZ	Normalized Luc. act., normalized to control
B1	684.7	1.4
B2	1003.3	2.0
B3	874.7	1.8
B4	536.9	1.1

Same assay, conditions: transcription factor +/- ligand; control = 1.00

Molecule	mADRP promoter reporter activity
B1	1.38
B2	2.02
B3	1.76
B4	1.08

System: RevErba promoter
Assay: NHR-promoter luciferase screen, RevErba (RVRa) promoter
Type: cell-based
Design: key to mRevErba promoter reporter activity / Normalized Luc. act., normalized to control: luciferase activity normalized to lacZ and to control (no NHR/ligand)
Conditions: RVRa promoter; HR component without or with ligand
Outline: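 Reporter readout: RevErbα promoter-driven luciferase, corrected for LacZ transfection efficiency and expressed relative to a no-receptor or no-ligand control. Receptors (V5H6-tagged, pcDNA3.1), alone or with RXR, plus any ligand, were expressed in CV-1 cells.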

Molecule	Luc. act., normalized to lacZ	Normalized Luc. act., normalized to control
B1	52.3	1.9
B2	26.5	0.9
B3	42.3	1.5
B4	20.0	0.7

Same assay, conditions: RVRa promoter; given only where activity is below control

Molecule	negative reciprocal of normalized Luc. act. (fold repression; Table 33)
B2	−1.054
B4	−1.397

Same assay, conditions: RVRa promoter; log10 of activity normalized to control

Molecule	normalized Luc. act. on a logarithmic scale (column without head, Table 33)
B1	0.27
B2	−0.02
B3	0.18
B4	−0.15

Same assay, conditions: transcription factor +/- ligand; control = 1.00

Molecule	mRevErba promoter reporter activity
B1	1.87
B2	0.95
B3	1.51
B4	0.72

System: mDio2 promoter
Assay: NHR-promoter luciferase screen, mDio2 promoter
Type: cell-based, mouse
Conditions: Dio2; HR component without or with its ligand
Outline: as §1

Molecule	Luc. act., normalized to lacZ	Normalized Luc. act., normalized to control
B1	33.8	2.2
B2	51.9	3.3
B3	39.5	2.5
B4	19.9	1.3

Same assay, conditions: transcription factor +/- ligand; control = 1.00

Molecule	mDio2 promoter reporter activity
B1	2.15
B2	3.31
B3	2.52
B4	1.27

System: mPer1 promoter
Assay: NHR-promoter luciferase screen, mPer1 promoter
Type: cell-based, mouse
Conditions: Per1 promoter reporter; co-transfected HR, with or without its ligand
Outline: as §1

Molecule	Luc. act., normalized to lacZ
B1	103.1
B2	225.6
B3	328.2
B4	79.1

Same assay, conditions: Per1 promoter reporter; co-transfected HR, with or without its ligand; relative to control

Molecule	Normalized Luc. act., normalized to control
B1	0.7
B2	1.6
B3	2.3
B4	0.5

Same assay, conditions: mPer1 promoter-luciferase, CV-1 cells, NHR +/- ligand, control = 1.00

Molecule	luciferase activity normalized to lacZ activity and to a control, mPer1
B1	0.72
B2	1.57
B3	2.28
B4	0.55

System: hMDR1 promoter
Assay: NHR-promoter luciferase screen, hMDR1 promoter
Type: cell-based, human
Conditions: MDR1 promoter; HR/ligand component
Outline: as §1

Molecule	Luc. act., normalized to lacZ	Normalized Luc. act., normalized to control
B1	0.3	1.0
B2	0.5	1.6
B3	0.4	1.2
B4	0.3	1.1

Same assay, conditions: transcription factor +/- ligand; control = 1.00

Molecule	hMDR1 promoter reporter activity
B1	1.01
B2	1.57
B3	1.20
B4	1.06
